Data as given in paper PMC12157784, “Photoelectrochemical Biosensor Based on 1D In2O3 Tube Decorated with 2D ZnIn2S4 Nanosheets for Sensitive PSA Detection”.

Molecular target: prostate specific antigen (PSA) (UniProt P07288 25-261)
Test: photoelectrochemical aptasensor (photocurrent decrease); PBS pH 7.4, aptamer immobilised on FTO/In2O3-ZnIn2S4, BSA blocked; linear 0.001-50 ng/mL, LOD 0.00037 ng/mL (not a Kd); PSA incubated 30 min at room temperature on aptamer electrode; 0.01 M PBS pH 7.4 as incubation/wash buffer; photocurrent read in 0.1 M ascorbic acid

Sequence of prostate specific antigen (PSA) (P07288 25-261): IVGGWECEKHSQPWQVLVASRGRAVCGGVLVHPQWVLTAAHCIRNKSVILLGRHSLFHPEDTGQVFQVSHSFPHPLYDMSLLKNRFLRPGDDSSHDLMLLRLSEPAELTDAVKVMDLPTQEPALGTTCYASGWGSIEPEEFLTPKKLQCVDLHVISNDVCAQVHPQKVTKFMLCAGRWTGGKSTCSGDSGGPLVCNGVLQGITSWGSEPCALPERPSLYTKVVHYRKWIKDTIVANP

ATTAAAGCTCGCCATCAAATAGC (ssDNA, 5'-NH2-(CH2)6) [PSA aptamer]
binding result: binds
